Data from PMC11848828.

Key:
[1] = biological target: Human 14-3-3ζ protein (human) (UniProt P63104); assay: ITC
[2] = biological target: Human 14-3-3ζ protein (human) (UniProt P63104); assay: real-time 1D 1H NMR

Sequence of UniProt P63104 (P63104 whole entry): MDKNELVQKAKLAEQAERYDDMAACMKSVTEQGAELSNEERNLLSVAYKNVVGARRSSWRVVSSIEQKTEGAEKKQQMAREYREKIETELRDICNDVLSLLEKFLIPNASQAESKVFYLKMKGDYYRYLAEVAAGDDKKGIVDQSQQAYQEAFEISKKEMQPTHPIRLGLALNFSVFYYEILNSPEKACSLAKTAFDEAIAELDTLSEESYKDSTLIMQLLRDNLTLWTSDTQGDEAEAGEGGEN

Substance | Kd [1] [µM] | dH [1] [kcal/mol] | further results
PRLR P393V variant peptide | 28 | -3.08 | –
PRLR W392A variant peptide | 4 | -8.17 | –
PRLR W392L variant peptide | 13 | – | –
PRLR W392Y variant peptide | – | -4.88 | Kd, two-sets-of-sites model, first set [1]: 0.4 µM; Kd, two-sets-of-sites model, second set [1]: 2.3 µM; dH of the cis proline isomer [1]: -4.64 kcal/mol; dH of the trans proline isomer [1]: -5.4 kcal/mol
PRLR WT peptide (21-residue phosphorylated fragment of the human prolactin receptor intracellular domain, pThr391) | – | -5.62 | concentration of the cis isomer bound instantly (t0) [2]: 101 µM
